Data published in patent WO2021105669A1 (dated 2021).
Residue numbers refer to the chain shown, from its start.

B1: 11889 (antibody, V domains shown)
VH: QSLEESGGDLVKPGASLTLTCTASGFSFSSSYWICWVRQAPGKGLEWIACIYAGSSGSTYYASWAKGRFTISKTSSTTVTLQMTSLTAADTATYFCATAYAVSAPFGYTLFKYFELWGPGTLVTVSS
VL: AVVLTQTASPVSAPVGGTVTIKCQASQNIYSDLAWYQQKPGQPPKLLIYDTSNLASGVSSRFKGSRSGTEFTLTISDLECADAATYYCQAYYYSSSSGDTTFGGGTEVVVK
B2: 11886 (antibody, V domains shown)
VH: QSVEESGGRLVTPGTPLTLTCIVSGFSLSNYYMSWVRQVPGKGLEWIGVIGWSGTSSYASWAKGRFTISKTASTTVDLKITSPTTEDTATYFCARVLYIGGGFNYYDAFDPWGPGTLVTVSS
VL: DVVMTQTPASVSEPVGGTVTIKCQASQSIGSNLAWYQQKPGQPPKLLIYAASTLASGVPSRFKGSGSGTEFTLTISDLECADAATYYCQCTYYDSSYVYNNFGGGTEVVVK
B3: 11892 (antibody, V domains shown)
VH: QSMEESGGRLVTPGTPLTLTCTVSGFSLSIYSMSWVRQAPGKGLEWIGIIYLGDRAYYASWAKGRFTISKTSSTTVDLKITSPTTEDTATYFCARVAGYAGYGYAFYDAFDPWGPGTLVTVSS
VL: DVVMTQTPASVSEPVGGTVTIKCQASQSIGSNLAWYQQKPGQPPKLLIYAASTLASGVPSRFKGSGSGTEFTLTINGVQCDDTATYYCQCTYYANTYVAETFGGGTEVVVK
B4: 11881 (antibody, V domains shown)
VH: B3 VH
VL: B3 VL with N95S

biological target: TAFV GP (YP_003815426.1) (Tai Forest Ebola virus, UniProt Q66810 33-676); test: flow cytometry on transiently transfected HEK293 cells

Row | Binder | binding result
1 | B1 | binds
2 | B2 | binds
3 | B3 | binds
4 | B4 | binds
